Source: the supplement of paper PMC12764529
± gives the half width of the 95% confidence interval.

Test: folding stability dG unfold from chymotrypsin proteolysis; higher = more stable
Outline: (§1)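 Unfolding free energy was derived, per protease or combined, against a sequence-predicted unfolded-state K50 and a shared folded-state K50, starting from K50 inferred by Bayesian fitting of sequencing counts. Digestion with trypsin and chymotrypsin was carried out on designed mini-proteins under 80 residues without cysteine in a PA-tagged cDNA display construct. Only designs with AlphaFold2 dimer inter-PAE above 15 were kept.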

Sequence	folding stability dG unfold [kcal/mol]
SAGGSAGGGPPSPVQTSTTSFSVSGDSSVTNVTVVTLPDGSLLVETTVFPSSGGSVSSLSSIPASAGGSAGG [r6_670_JUSTAS]	0.218 ± 0.21
SAGGSAGGSKKKPYIIKIYYKDPKTKKKSKKEILVSGKVKNPEKFAKEAAKKLGPVGKVEFKPSAGGSAGGS [r12_942_TrMRF]	0.757 ± 0.15
SASPEDTVTTTETEPTTISLGTASIPPDLEVLSVTVTTTTTTTYKVEPPGVPVKLSSTTTTTTTVTLKRTSA [r9_747_JUSTAS]	2.45 ± 0.1
NRYYRITIRNPDGMPIELFVRRSPNGEYMVRVKINMPNKKPKTIWFPFKSPEDILEEIRKHLPWDIEIEPWS [r1_137_TrROS]	3.28 ± 0.053
SMTLEEAKEIAEKNPDIPVALIFPGKKLIYIYHPKSGKWEVKPVTSIEEAIEALEKEDIDAIFIVPAELDSA [r9_775_TrMRF]	3.93 ± 0.087
SAGGSFSVDVPPDATVEVEEKVKRPDGSEVHLKITITRLPTSGKVLVTVEDNPPEKGSTTKEEIVPLESAGG [r13_934_JUSTAS]	0.975 ± 0.068
SAGGSAGGSATTVTVESDPATGTRFVYETDEKNPGLLKVTKVTTLPDGSVVVETGYISPEKLSAGGSAGGSA [r18_505_JUSTAS]	1.74 ± 0.043
SAGGSVVPLPLDETVELTFDGTTATFTALPDGTATATFTGPDSTARATFPPDGAVTVTVPGAGTTAASAGGS [r16_725_JUSTAS]	-0.268 ± 0.19
SAGGSAGGSAGGGSMSITVPMSPEEGKKLAEEIKEKLKSEGNPVEVTVTIVSPTDPSLLSSAGGSAGGSAGG [r7_776_JUSTAS]	0.167 ± 0.066
SAGGSASMSKTTTETSPDSETTTTTYYPNGTVTTTKTTTVGEGTTTTTTTTKVLFIPGPGVLVPEPSAGGSA [r15_746_JUSTAS]	0.514 ± 0.062
SAGGSAGGKTIVIDMSIEEIAKKLGLEIVEVKKNKDGSVTITLKNGKKITIKVKSPEDLLKAIKSAGGSAGG [r6_13_TrROS_Hall]	3.03 ± 0.15
SAGGSAGGSASVTVSPTPDDTWRVEVTETRYFFDPDGRPIGPVTITSSRVVSSEEEAAALLSAGGSAGGSAG [r3_232_JUSTAS]	0.397 ± 0.15
SAGGSAGGSLEVKVLGIVGDKPVEVTLPAGLGELTLEEIRAAFPPGEWRLVLRDENGNETPLTSAGGSAGGS [r12_540_TrMRF]	-0.00936 ± 0.18
SAGGSAGGSAGGEKEPVTLLVVRVDGKLVVVSEEELKKLAEELNVEVEVRLVTVTKEELKSAGGSAGGSAGG [r7_185_TrROS_Hall]	1.94 ± 0.033
SAGGSAGGSARVFIVITYQNPGDGKPRQITIPIDIKDGKITLDDLKELFPGYPITNISIFPLSAGGSAGGSA [r18_494_TrROS]	3.58 ± 0.12
SMNIISIDIEPYRTGGEPWIYIPIQVPDENMPPSELEEIVEEIFEKLGLPINVKVHRDPNSGTIWIMIRLSA [r9_717_TrROS]	2.79 ± 0.13
SAGGSSMRKLIIIGPEGVTLERPIGPERTVEDVKAEWEAIGNVKFEEYPETGEVVVYLPEEALKEKSAGGSA [r2_164_JUSTAS]	1.47 ± 0.029

Test: folding stability dG unfold from trypsin proteolysis; higher = more stable
Outline: as §1

Sequence	folding stability dG unfold [kcal/mol]
SAGGSAGGGPPSPVQTSTTSFSVSGDSSVTNVTVVTLPDGSLLVETTVFPSSGGSVSSLSSIPASAGGSAGG [r6_670_JUSTAS]	1.27 ± 0.031
SAGGSAGGSKKKPYIIKIYYKDPKTKKKSKKEILVSGKVKNPEKFAKEAAKKLGPVGKVEFKPSAGGSAGGS [r12_942_TrMRF]	-0.0324 ± 0.084
SASPEDTVTTTETEPTTISLGTASIPPDLEVLSVTVTTTTTTTYKVEPPGVPVKLSSTTTTTTTVTLKRTSA [r9_747_JUSTAS]	2.79 ± 0.3
NRYYRITIRNPDGMPIELFVRRSPNGEYMVRVKINMPNKKPKTIWFPFKSPEDILEEIRKHLPWDIEIEPWS [r1_137_TrROS]	3.46 ± 0.089
SMTLEEAKEIAEKNPDIPVALIFPGKKLIYIYHPKSGKWEVKPVTSIEEAIEALEKEDIDAIFIVPAELDSA [r9_775_TrMRF]	4.54 ± 0.44
SAGGSFSVDVPPDATVEVEEKVKRPDGSEVHLKITITRLPTSGKVLVTVEDNPPEKGSTTKEEIVPLESAGG [r13_934_JUSTAS]	-0.431 ± 0.38
SAGGSAGGSATTVTVESDPATGTRFVYETDEKNPGLLKVTKVTTLPDGSVVVETGYISPEKLSAGGSAGGSA [r18_505_JUSTAS]	1.45 ± 0.051
SAGGSVVPLPLDETVELTFDGTTATFTALPDGTATATFTGPDSTARATFPPDGAVTVTVPGAGTTAASAGGS [r16_725_JUSTAS]	-1.18 ± 0.62
SAGGSAGGSAGGGSMSITVPMSPEEGKKLAEEIKEKLKSEGNPVEVTVTIVSPTDPSLLSSAGGSAGGSAGG [r7_776_JUSTAS]	0.627 ± 0.04
SAGGSASMSKTTTETSPDSETTTTTYYPNGTVTTTKTTTVGEGTTTTTTTTKVLFIPGPGVLVPEPSAGGSA [r15_746_JUSTAS]	-0.174 ± 0.045
SAGGSAGGKTIVIDMSIEEIAKKLGLEIVEVKKNKDGSVTITLKNGKKITIKVKSPEDLLKAIKSAGGSAGG [r6_13_TrROS_Hall]	1.65 ± 0.11
SAGGSAGGSASVTVSPTPDDTWRVEVTETRYFFDPDGRPIGPVTITSSRVVSSEEEAAALLSAGGSAGGSAG [r3_232_JUSTAS]	0.537 ± 0.038
SAGGSAGGSLEVKVLGIVGDKPVEVTLPAGLGELTLEEIRAAFPPGEWRLVLRDENGNETPLTSAGGSAGGS [r12_540_TrMRF]	0.663 ± 0.089
SAGGSAGGSAGGEKEPVTLLVVRVDGKLVVVSEEELKKLAEELNVEVEVRLVTVTKEELKSAGGSAGGSAGG [r7_185_TrROS_Hall]	0.567 ± 0.038
SAGGSAGGSARVFIVITYQNPGDGKPRQITIPIDIKDGKITLDDLKELFPGYPITNISIFPLSAGGSAGGSA [r18_494_TrROS]	3.5 ± 0.14
SMNIISIDIEPYRTGGEPWIYIPIQVPDENMPPSELEEIVEEIFEKLGLPINVKVHRDPNSGTIWIMIRLSA [r9_717_TrROS]	2.72 ± 0.15
SAGGSSMRKLIIIGPEGVTLERPIGPERTVEDVKAEWEAIGNVKFEEYPETGEVVVYLPEEALKEKSAGGSA [r2_164_JUSTAS]	0.601 ± 0.054

Test: folding stability dG unfold (combined trypsin and chymotrypsin); higher = more stable
Outline: as §1

Sequence	folding stability dG unfold [kcal/mol]
SAGGSAGGGPPSPVQTSTTSFSVSGDSSVTNVTVVTLPDGSLLVETTVFPSSGGSVSSLSSIPASAGGSAGG [r6_670_JUSTAS]	0.855 ± 0.058
SAGGSAGGSKKKPYIIKIYYKDPKTKKKSKKEILVSGKVKNPEKFAKEAAKKLGPVGKVEFKPSAGGSAGGS [r12_942_TrMRF]	0.537 ± 0.098
SASPEDTVTTTETEPTTISLGTASIPPDLEVLSVTVTTTTTTTYKVEPPGVPVKLSSTTTTTTTVTLKRTSA [r9_747_JUSTAS]	2.69 ± 0.38
NRYYRITIRNPDGMPIELFVRRSPNGEYMVRVKINMPNKKPKTIWFPFKSPEDILEEIRKHLPWDIEIEPWS [r1_137_TrROS]	3.31 ± 0.087
SMTLEEAKEIAEKNPDIPVALIFPGKKLIYIYHPKSGKWEVKPVTSIEEAIEALEKEDIDAIFIVPAELDSA [r9_775_TrMRF]	4.06 ± 0.16
SAGGSFSVDVPPDATVEVEEKVKRPDGSEVHLKITITRLPTSGKVLVTVEDNPPEKGSTTKEEIVPLESAGG [r13_934_JUSTAS]	0.658 ± 0.28
SAGGSAGGSATTVTVESDPATGTRFVYETDEKNPGLLKVTKVTTLPDGSVVVETGYISPEKLSAGGSAGGSA [r18_505_JUSTAS]	1.61 ± 0.11
SAGGSVVPLPLDETVELTFDGTTATFTALPDGTATATFTGPDSTARATFPPDGAVTVTVPGAGTTAASAGGS [r16_725_JUSTAS]	-0.404 ± 0.19
SAGGSAGGSAGGGSMSITVPMSPEEGKKLAEEIKEKLKSEGNPVEVTVTIVSPTDPSLLSSAGGSAGGSAGG [r7_776_JUSTAS]	0.41 ± 0.17
SAGGSASMSKTTTETSPDSETTTTTYYPNGTVTTTKTTTVGEGTTTTTTTTKVLFIPGPGVLVPEPSAGGSA [r15_746_JUSTAS]	0.259 ± 0.046
SAGGSAGGKTIVIDMSIEEIAKKLGLEIVEVKKNKDGSVTITLKNGKKITIKVKSPEDLLKAIKSAGGSAGG [r6_13_TrROS_Hall]	2.54 ± 0.29
SAGGSAGGSASVTVSPTPDDTWRVEVTETRYFFDPDGRPIGPVTITSSRVVSSEEEAAALLSAGGSAGGSAG [r3_232_JUSTAS]	0.49 ± 0.15
SAGGSAGGSLEVKVLGIVGDKPVEVTLPAGLGELTLEEIRAAFPPGEWRLVLRDENGNETPLTSAGGSAGGS [r12_540_TrMRF]	0.446 ± 0.16
SAGGSAGGSAGGEKEPVTLLVVRVDGKLVVVSEEELKKLAEELNVEVEVRLVTVTKEELKSAGGSAGGSAGG [r7_185_TrROS_Hall]	1.57 ± 0.085
SAGGSAGGSARVFIVITYQNPGDGKPRQITIPIDIKDGKITLDDLKELFPGYPITNISIFPLSAGGSAGGSA [r18_494_TrROS]	3.65 ± 0.13
SMNIISIDIEPYRTGGEPWIYIPIQVPDENMPPSELEEIVEEIFEKLGLPINVKVHRDPNSGTIWIMIRLSA [r9_717_TrROS]	2.75 ± 0.27
SAGGSSMRKLIIIGPEGVTLERPIGPERTVEDVKAEWEAIGNVKFEEYPETGEVVVYLPEEALKEKSAGGSA [r2_164_JUSTAS]	1.22 ± 0.08
